Laboratory results from PMC12415521 (Methods in molecular biology (Clifton, N.J.), 2023).
Like-named read-outs stand apart in the source and are kept apart here.

Key:
CD2 domain of cpSRP43 [1] = biological target: T1, CD2 domain of cpSRP43; experiment: ITC
T1 chain: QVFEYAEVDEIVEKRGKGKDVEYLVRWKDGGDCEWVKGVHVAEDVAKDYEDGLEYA

CD2 domain of cpSRP43 [2] = biological target: T1, CD2 domain of cpSRP43; experiment: ITC

A Kd (CD2 domain of cpSRP43 [1]) of 1.42 µM and a Kd (CD2 domain of cpSRP43 [2]) of 1.27 µM were found for APPGTARRKRKADS [54-peptide] in this work.
